Assay results as given in US20260069728A1, “MULTI-TARGETING COMPOUND AND USE THEREOF” (Chengdu Shetai Medical Technology Co., Ltd., priority 2023, published 2026).
Where two headings read alike, the source gives them in different places.

Key:
[1] = Isoelectric point (PI) measurement; format: physicochemical; details: unlabeled compound
[2] = tested on: SUM149PT human breast cancer cell line; experiment: Cell saturation binding assay, SUM149PT; details: 68Ga-labeled compound
Experimental: (1) For the cell saturation binding assay, a total of 8 radiolabeled ligand concentrations were set at intervals within the anticipated range. For each concentration, there were 3 groups: the non-inhibition group, the first single inhibition group (FAP single inhibition group), and the second single inhibition group (CXCR4/GRPR/αvβ3 single inhibition group). For each concentration and each group, 3 replicate wells were established.
(2) Cells were plated into a 24-well plate according to the cell plating procedure described above.
(3) The original culture medium was removed from the 24-well plate. Then, 400 μL of 100 mg/mL skimmed milk solution was added to each well for blocking for one hour. After removing the skimmed milk solution, each of wells was washed three times by adding 400 μL of PBS solution. Subsequently, 146 μL of FBS-free medium was added to each well. Next, the non-inhibition group received 4 μL of cold PBS per well, while the first single inhibition group and the second single inhibition group received the following additions per well according to Table 4: 2 μL of non-radiolabeled first single inhibitor solution and 2 μL of cold PBS; 2 μL of non-radiolabeled second single inhibitor solution and 2 μL of cold PBS. The plate was then incubated at room temperature for one hour.
(4) The ligands were radiolabeled with 68Ga using the labeling method described previously. Different volumes of FBS-free medium were added to formulate the radioligand systems at corresponding concentrations. Then, 50 μL of the corresponding concentration of the radioligand system was added to each well.
(5) The supernatant was removed, and the wells were washed three times with 400 μL of PBS. 200 μL of IM NaOH solution was added to each well for cell lysis. […] Each well was washed once with 400 μL of PBS solution, and the washings were sequentially added to the corresponding radioimmunoassay tubes.
(6) Radioactivity in the cells was measured using a γ counter. The equilibrium dissociation constant (KD) was obtained by fitting the curve using nonlinear regression analysis in GraphPad Prism software. KD is the drug concentration that causes half of the maximum effect (50% receptor occupancy).

[3] = Stability of radioligands in PBS buffer (radio-HPLC); format: physicochemical
Experimental: The purpose of this experiment was to test the stability of the radioligands under buffer conditions simulating the physiological environment. This stability is a prerequisite for further animal experiments.
(§1) 1. ^68Ga-SDYD01: ^68Ga-SDYD01 was added to PBS buffer (pH=7.4) and incubated at 37° C. The mixture samples were taken for radio-HPLC analysis after 0.5 hours, 1 hour, and 2 hours of incubation. The stability of ^68Ga-SDYD01 in PBS buffer: the radiochemical purities of ^68Ga-SDYD01 after incubation in PBS for 0.5 hours, 1 hour, and 2 hours were 98%, 97%, and 97%, respectively (FIG. 4).
(§2) 2. ^177Lu-SDYD01: ^177Lu-SDYD01 was added to PBS buffer (pH=7.4) and incubated at 37° C. The mixture samples were taken for radio-HPLC analysis after 24 hours, 48 hours, and 120 hours of incubation. The stability of ^177Lu-SDYD01 in PBS buffer: the radiochemical purities of ^177Lu-SDYD01 after incubation in PBS for 24 hours, 48 hours, and 120 hours were 97%, 96%, and 94%, respectively (FIG. 5).
as §1, with “^68Ga-SDYD02: ^68Ga-SDYD02” for “^68Ga-SDYD01: ^68Ga-SDYD01”, “^68Ga-SDYD02” for “^68Ga-SDYD01”, “96%, 95%” for “98%, 97%,”, “93%,” for “97%,”, “10).” for “4).”
as §2, with “^177Lu-SDYD02: ^177Lu-SDYD02” for “^177Lu-SDYD01: ^177Lu-SDYD01”, “^177Lu-SDYD02” for “^177Lu-SDYD01”, “95%, 91%” for “97%, 96%,”, “87%,” for “94%,”, “11).” for “5).”
as §1, with “1. ^68Ga-SDYD05: ^68Ga-SDYD05” for “1. ^68Ga-SDYD01: ^68Ga-SDYD01”, “of ^68Ga-SDYD05” for “of ^68Ga-SDYD01”, “98%, 96%” for “98%, 97%,”, “and 95%,” for “and 97%,”, “(FIG. 16).” for “(FIG. 4).”
as §2, with “^177Lu-SDYD05: ^177Lu-SDYD05” for “^177Lu-SDYD01: ^177Lu-SDYD01”, “^177Lu-SDYD05” for “^177Lu-SDYD01”, “97%, 96% and” for “97%,”, “96%,” for “96%, and 94%,”, “17).” for “5).”
1. ^68Ga-SDYD06: ^68Ga-SDYD06 was added to PBS buffer (pH=7.4) and incubated at 37° C. The mixture samples were taken for radio-HPLC analysis after 0.5, 1, and 2 hours of incubation. The stability of ^68Ga-SDYD06 in PBS buffer: the radiochemical purities of ^68Ga-SDYD06 after incubation in PBS for 0.5 hours, 1 hour, and 2 hours were 96%, 94% and 93%, respectively (FIG. 22).
2. ^177Lu-SDYD06: ^177Lu-SDYD06 was added to PBS buffer (pH=7.4) and incubated at 37° C. The mixture samples were taken for radio-HPLC analysis after 24 hours, 48 hours, and 120 hours of incubation.
1. ^68Ga-SDYD03: ^68Ga-SDYD03 was added to PBS buffer (pH=7.4) and incubated at 37° C. The mixture samples were taken for radio-HPLC analysis after 0.5 hours, 1 hour, and 2 hours of incubation. The stability of ^68Ga-SDYD03 PBS in PBS buffer: the radiochemical purities of ^68Ga-SDYD03 after incubation in PBS for 0.5 hours, 1 hour, and 2 hours were 96%, 96% and 95%, respectively (FIG. 27).
as §2, with “^177Lu-SDYD03: ^177Lu-SDYD03” for “^177Lu-SDYD01: ^177Lu-SDYD01”, “^177Lu-SDYD03” for “^177Lu-SDYD01”, “are 99%, 96%” for “were 97%, 96%,”, “28). […]” for “5).”

[4] = Small animal PET imaging and biodistribution study; format: in vivo, NSG mice; details: NSG, mouse, in vivo, iv, 7.4 MBq, total radioactivity, absolute uptake value in the tumor
Experimental: (§3) Eleven NSG mice bearing subcutaneous xenograft tumors (U87 MG cells), with tumor sizes approximately 150 mm^3, were used. The mice were intravenously injected via the tail vein with approximately 7.4 MBq of ^68Ga-labeled SDYD01, SDYD02, SDYD03. SDYD04, SDYD05, SDYD06, SDYD07, SDYD08 or SDYD07-1 compounds, or with ^[…]-labeled FAPI-04 or FAP2286 compounds as tracers. Micro PET/CT imaging was performed at 30 min, 60 min, and 120 min post-injection. Static images were acquired in 3D mode for 20 minutes. Reconstruction was performed using the OSEM3D/MAP method to obtain attenuation-corrected PET/CT fusion images.
(§4) NSG mice bearing subcutaneous xenograft tumors (U87 MG cells) were divided into 3 groups, with 11 mice in each group. They were intravenously injected via the tail vein with ^68Ga-labeled SDYD01, SDYD02, SDYD03. SDYD04, SDYD05, SDYD06. SDYD07, SDYD08, or SDYD07-1 compounds, or with ^68Ga-labeled FAPI-04 or FAP2286 compounds as tracers. Tumor-bearing mice injected with ^68Ga-labeled compounds SDYD01, SDYD02, SDYD03, SDYD04, SDYD05, SDYD06, FAPI-04, as well as 68Ga-labeled compounds FAPI-04 and FAP2286, were euthanized at 30 min. 60 min, and 120 min, respectively, for each group. Tumor-bearing mice injected with ^68Ga-labeled compounds SDYD07, SDYD08, and SDYD07-1 were euthanized at 30 min, 60 min, and 90 min, respectively, for each group. Blood, tumors, and other major organs and tissues were collected, weighed, and measured for radioactivity. After radioactive decay correction, the standardized uptake value (SUV) and percentage injected dose per gram of tissue (% ID/g) were calculated. In these figures, (a) represents the PET/CT imaging results, (b) represents the biodistribution results, and (c) represents the relative ratios of radioactive uptake in tumor versus normal tissues.

[5] = tested on: subcutaneous xenograft tumors (U87 MG cells); experiment: Small animal PET imaging and biodistribution study; format: in vivo, NSG mice; details: mouse, in vivo
Experimental: as §3, §4

| SMILES | Main peak's PI [1] | KD values / binding affinity to the receptors (in words) [2] | Kd ([2]; FAPI-04 solution, read-out: KD value, First single inhibition group (FAP single inhibition)) [nM] | Kd ([2]; T140 solution (CXCR4 inhibitor), read-out: KD value, Second single inhibition group (CXCR4/GRPR/αvβ3 single inhibition)) [nM] | Kd ([2]; read-out: KD value, Non-inhibition group) [nM] | stability in PBS buffer (in words) [3] | tissue uptake at 0.5 h [4] [%ID/g] | tissue uptake at 1 h [4] [%ID/g] | radioactive uptake in the tumor sites (in words) [5] |
| --- | --- | --- | --- | --- | --- | --- | --- | --- | --- |
| CCCCCC(=O)N[C@@H]1CSCc2cc(CSCCNC(=O)[C@@H](CCCCNC(=O)CN3CCN(CC(=O)O)CCN(CC(=O)O)CCN(CC(=O)O)CC3)NC(=O)COCCOCCNC(=O)COCCOCCNC(=O)CCN3C(=O)CC(SCCNC(=O)CCC(=O)N[C@@H](CCCNC(=N)N)C(=O)N[C@@H](CCCNC(=N)N)C(=O)N[C@@H](Cc4ccc5ccccc5c4)C(=O)N[C@@H]4CSSC[C@@H](C(=O)N[C@@H](CCCNC(=N)N)C(N)=O)NC(=O)[C@H](CCCNC(N)=O)NC(=O)[C@H](CCCNC(=N)N)NC(=O)[C@H](Cc5ccc(O)cc5)NC(=O)[C@@H]5CCCN5C(=O)[C@H](CCCCN)NC(=O)[C@H](CCCCN)NC(=O)[C@H](CCCNC(N)=O)NC(=O)[C@H](Cc5ccc(O)cc5)NC4=O)C3=O)cc(c2)CSC[C@@H](C(=O)O)NC(=O)[C@H](Cc2ccccc2)NC(=O)[C@H](CCC(N)=O)NC(=O)C([C@@H](C)O)NC(=O)[C@@H]2CCCN2C(=O)[C@@H]2CCCN2C1=O (stereo partly drawn) [SDYD02] | 11.183 | relatively low KD values | 3.35 ± 0.92 | 6.3 ± 0.78 | 7.11 ± 1.17 |  |  |  |  |
| CN1C(=O)[C@@H](Cc2ccc(O)cc2)NC(=O)CNC(=O)[C@H](Cc2ccc3ccccc3c2)NC(=O)[C@H](CCCNC(=N)N)NC(=O)[C@H]1CCCNC(=O)c1ccc(CNC(=O)[C@H](CCCCNC(=O)CN2CCN(CC(=O)O)CCN(CC(=O)O)CCN(CC(=O)O)CC2)NC(=O)CCC(=O)NCCOCCOCC(=O)NCCOCCOCC(=O)N2CCN(CCCOc3ccc4nccc(C(=O)NCC(=O)N5CC(F)(F)C[C@H]5C#N)c4c3)CC2)cc1 [^68Ga-SDYD05, metal not drawn] |  |  |  |  |  | quite stable in PBS buffer | ≥ 10 | ≥ 10 | significant radioactive uptake in the tumor sites |
